Measured values from article PMC9049628.

Substrate: NCCCC[C@H](N)C(=O)O
Experiment: purified protein
Settings: 5 mM acetyl-CoA, 50 mM Tris-HCl pH 10.0, 40 °C, 0.65 mM DTNB

B1: ShKAT (Salinicoccus halodurans) (protein)
chain: MWQTKKFNELSLSEIEQIFRLRQSIFIIEQQSYFADIDGKDTEAIHIFNKENNIIWAYCRILIYDEKVILGRVTVHSDKRGNGNGRELLNTALKYLKENYPDKFVQIVAMSYLKDFYKSYGFKSISEVYIMDDHPHEDMILKH
How did the Km turn out when B1 was run?
Its Km is 1.89 mM.
